Data taken from patent publication US20230151110A1 (HUTCHISON MEDIPHARMA, published 2023).
Numbering of substitutions follows the chain as printed. Names may count otherwise. Values belong to the molecule of their own block, whether it stands above or below them.

What was measured:
[1] = target: T1, human CD47 protein on the cell surface (human, UniProt Q08722 19-323); test: FACS on Raji cells (endogenous human CD47); negative control
T1 construct: whole, on cells; One molecule is used for overexpressed (CHO-K1) and endogenous (Raji, Toledo, REC-1, red blood cells) human CD47; the cell is named under assay; also called CD47 on the surface of Raji, Toledo, REC-1 cells; CD47 on the surface of human red blood cells

[2] = target: T1, human CD47 protein on the cell surface; test: FACS on REC-1 cells (endogenous human CD47); negative control
[3] = target: CD47 on the surface of cynomolgus monkey B cells (cynomolgus monkey); test: FACS on cynomolgus monkey B cells, antibody 66.7 nM; negative control
[4] = target: T1, human CD47 protein on the cell surface; test: FACS on Toledo cells (endogenous human CD47); negative control
[5] = target: T2, CD47 on the surface of cynomolgus monkey B cells (cynomolgus monkey, UniProt A0A5F8AK49 19-323 (rhesus entry)); test: FACS on cynomolgus monkey B cells, antibody 66.7 nM
T2 construct: whole, on cells; also called cynomolgus monkey CD47
Excerpt: The cells were washed three times and analyzed by flow cytometry.

[6] = target: T3, recombinant protein hCD47-Fc containing the extracellular domain of human CD47 fused with the Fc fragment of … (human, UniProt Q08722 19-139); test: competition ELISA as in Example 1.3: hCD47-Fc coated, SIRPα-His as competitor ligand, anti-His-HRP
T3 construct: extracellular domain; Bought reagent; also called ACROBiosystems Cat: CD7-H5256; not shown: Fc fragment of human IgG

[7] = target: T1, human CD47 protein on the cell surface; test: FACS on Toledo cells (endogenous human CD47)
Description: (§1) Human CD47 was endogenously expressed on the cell surface of human Burkitt lymphoma cell line Raji. […] The diluted antibodies were mixed with and co-incubated with Raji cells (purchased from ATCC) (5*10⁵ cells/well) at 4° C. for 1 hour. […] The cells were washed three times with PBS containing 2% fetal bovine serum (FBS), and then the fluorescence signal was detected by CantoII (BD Biosciences) flow cytometry, and according to the average fluorescence intensity (MFI) of the signal, GraphPad was used for fitting a concentration dependent curve, and the EC₅₀ was calculated.

[8] = target: T1, human CD47 protein on the cell surface; test: FACS on Raji cells (endogenous human CD47)
Description: as §1

[9] = target: T4, human CD47-His fusion protein (human, UniProt Q08722 19-139); test: SPR (Biacore T200): antibody captured by anti-human Fc on CM5, human CD47-His as analyte, 1:1 Langmuir fit
T4 construct: Bought reagent; also called ACROBiosystems Cat: CD7-H5227; not shown: His tag

[10] = target: T1, human CD47 protein on the cell surface; test: FACS on REC-1 cells (endogenous human CD47)
Description: as §1

[11] = target: T1, human CD47 protein on the cell surface; test: FACS on human red blood cells (endogenous CD47)
Description: The cells were washed three times with PBS containing 2% fetal bovine serum (FBS), and then the fluorescence signal was detected by Canto II (BD Biosciences) flow cytometry. According to the average fluorescence intensity (MFI) of the signal, GraphPad was used for fitting a concentration dependent curve, and the EC₅₀ was calculated.

[12] = target: T1, human CD47 protein on the cell surface; test: FACS on CHO-K1 cells overexpressing human CD47
Description: A human CD47 protein (NCBI accession number: NP_001768.1) was overexpressed in hamster ovary cell line CHO-K1 to establish CHO-K1 cell line overexpressing the human CD47 protein. […] After washing twice with iced PBS, the cells were incubated with an iFluor647-labeled goat anti-mouse IgG (H+L) antibody (Genscript) at 4° C. in the dark for 40 minutes. The cells were washed twice with iced PBS, and then the fluorescence signal was detected by Calibur (BD Biosciences) flow cytometry, and according to the average fluorescence intensity (MFI) of the signal, GraphPad was used for fitting a concentration dependent curve, and the EC₅₀ was calculated.

[13] = target: T3, recombinant protein hCD47-Fc containing …; test: competition ELISA: hCD47-Fc coated, SIRPα-His 2.5 µg/ml as competitor ligand, anti-His-HRP
Description: The recombinant protein hCD47-Fc containing the extracellular domain of human CD47 fused with the Fc fragment of human IgG (ACROBiosystems, Cat: CD7-H5256) was coated onto a 96-well plate and incubated overnight at 4° C. After the plate was washed 3 times with PBST (PBS containing 0.5% Tween-20), PBST containing 1% BSA was added for blocking the plate for 2 hours. […] After the 96-well plate was incubated at 37° C. for 30 minutes, the plate was washed 5 times with PBST, and a TMD (Surmodics, Cat: TMBW-1000-01) developing solution was added, and was incubated in the dark for 15 minutes. 2N H₂SO₄ was added to terminate the color-developing reaction. OD₄₅₀ was read on a microplate reader.

[14] = target: T1, human CD47 protein on the cell surface; test: FACS on Raji cells (endogenous human CD47), n = 3
Description: as §1

B1: Hu-125G4A4m-43 (antibody, V domains shown)
VH: QVQLVQSGAEVKKPGSSVKVSCKASGYTFTSYYMHWVRQAPGQGLEWMGYIDPANDYSDYNQNFKDRVTITADKSTRTTYMELTSLRSEDTAVYYCARLGYGQSSPFDYWGQGTTVTVSS
VL: DIQMTQSPSSLSASVGDRVTITCKASQDIHNYLSWFQQKPGKAPKSLIYRAKRLVEGVPSRFSGSGSGQDYTLTISSLQPEDFATYYCLQYDELYTFGQGTRLEIK
notes: Humanized antibody, IgG4 S228P (IgG4P) subtype
- Max MFI [5]: 3260 MFI
- Max MFI compared with Ch-125G4m-m35 value, % [5]: 72%

B2: humanized antibody HMA02h14-48 (antibody, V domains shown)
VH: B1 VH with V68A, I70L
VL: B1 VL with Q69T
notes: Humanized antibody, IgG4 S228P (IgG4P) subtype; also called Hu-125G4A4m-48; Hu-125G4A4-48
- IC50 [6]: 1.58 nM
- EC50 [7]: 2.2 nM
- EC50 [8]: 1.2 nM
- Kd [9]: 0.777 nM
- EC50 [10]: 0.6 nM
- EC50 [11]: 3.9 nM
- Max MFI [5]: 4200 MFI
- Max MFI compared with Ch-125G4m-m35 value, % [5]: 92%

B5: Hu-125G4A4m-50 (antibody, V domains shown)
VH: B1 VH with V68A, I70L
VL: B1 VL with Q3K, S46T, S60L, Y87F
notes: as for B1
- Max MFI [5]: 4840 MFI
- Max MFI compared with Ch-125G4m-m35 value, % [5]: 106%

B10: hybridoma-derived antibody 125G4A4 (antibody, V domains shown)
VH: QVQLQQSGTELAKPGASVKMSCKASGYTFTSYYMHWVKQRPGQILEWIGYIDPANDYSDYNQNFKDKATLTADKSSRTTYMQLTSLTSEDSAVYYCARLGYGNSSPFDYWGQGTTLIVSS
VL: DIKMTQSPSSMYASVGERVTITCKASQDIHNYLSWFQQKPGKSPKTLIYRAKRLVDGVPLRFSGSGSGQDYSLTISSLEYEDMGIYFCLQYDELYTFGGGTRLEIK
notes: Mouse antibody purified from hybridoma supernatant on Protein A
- EC50 [12]: 0.22 nM
- IC50 [13]: 3.06 nM
- EC50 [14]: 0.84 nM

B11: control antibody Hu5F9 (antibody, V domains shown)
VH: QVQLVQSGAEVKKPGASVKVSCKASGYTFTNYNMHWVRQAPGQRLEWMGTIYPGNDDTSYNQKFKDRVTITADTSASTAYMELSSLRSEDTAVYYCARGGYRAMDYWGQGTLVTVSS
VL: DIVMTQSPLSLPVTPGEPASISCRSSQSIVYSNGNTYLGWYLQKPGQSPQLLIYKVSNRFSGVPDRFSGSGSGTDFTLKISRVEAEDVGVYYCFQGSHVPYTFGQGTKLEIK
- Max MFI [5]: 4120 MFI
- Max MFI compared with Ch-125G4m-m35 value, % [5]: 90%

Other lines, results leading:

- Max MFI [1]: 175 MFI
- Max MFI [2]: 265 MFI
- Max MFI [3]: 53 MFI
- Max MFI [4]: 50 MFI
Molecule: negative isotype control antibody (isotype), human IgG4P

- Max MFI [5]: 2520 MFI
- Max MFI compared with Ch-125G4m-m35 value, % [5]: 55%
B3: Hu-125G4A4m-46 (antibody, V domains shown)
VH: B1 VH with T79A
VL: B1 VL
notes: as for B1

- Max MFI [5]: 4100 MFI
- Max MFI compared with Ch-125G4m-m35 value, % [5]: 90%
B4: Hu-125G4A4m-47 (antibody, V domains shown)
VH: B1 VH with T79A
VL: B1 VL with Q3K, S46T, S60L, Y87F
notes: as for B1

- Max MFI [5]: 4510 MFI
- Max MFI compared with Ch-125G4m-m35 value, % [5]: 99%
B6: Hu-125G4A4m-44 (antibody, V domains shown)
VH: B1 VH
VL: B1 VL with Q3K, S46T, S60L, Y87F
notes: as for B1

- Max MFI [5]: 4080 MFI
- Max MFI compared with Ch-125G4m-m35 value, % [5]: 90%
B7: Hu-125G4A4m-49 (antibody, V domains shown)
VH: B1 VH with V68A, I70L
VL: B1 VL
notes: as for B1

- Max MFI [5]: 2630 MFI
- Max MFI compared with Ch-125G4m-m35 value, % [5]: 58%
B8: Hu-125G4A4m-45 (antibody, V domains shown)
VH: B1 VH with T79A
VL: B1 VL with Q69T
notes: as for B1

- Max MFI [5]: 4550 MFI
- Max MFI compared with Ch-125G4m-m35 value, % [5]: 100%
B9: chimeric antibody Ch-125G4-m35 (antibody, V domains shown)
VH: B10 VH with N103Q
VL: B10 VL with D56E
notes: Chimeric antibody with human IgG4 (S228P) heavy chain constant region and human kappa light chain constant region; PTM sites mutated (NSS to QSS in the heavy chain, DG to EG in the light chain); also called Ch-125G4m-m35; 125G4A4m
